B1: SH3 and multiple ankyrin repeat domains protein 2 (Rattus norvegicus (Rat)), Q9QX74-4 (parent)
chain: MMSVPGGGAATVMMTGYNNGRYPRNSLYSDCIIEDKTVVLQKKDNEGFGFVLRGAKADTPIEEFTPTPAFPALQYLESVDEGGVAWQAGLRTGDFLIEVNNENVVKVGHRQVVNMIRQGGNHLVLKVVTVTRNLDPDDTARKKAPPPPKRAPTTALTLRSKSMTAELEELVDKASVRKKKDKPEEIVPASKPSRTAENVAIESRVATIKQRPTSRCFPAASDVNSVYERQGIAVMTPTVPGSPKGPFLGLPRGTMRRQKSIDSRIFLSGITEEERQFLAPPMLKFTRSLSMPDTSEDIPPPPQSVPPSPPPPSPTTYNCPRSPTPRVYGTIKPAFNQNPVAKVPPATRSDTVATMMREKGMFYRRELDRFSLDSEDVYSRSPAPQAAFRTKRGQMPENPYSEVGKIASKAVYVPAKPARRKGMLVKQSNVEDSPEKTCSIPIPTIIVKEPSTSSSGKSSQGSSMEIDPQATEPGQLRPDDSLTVSSPFAAAIAGAVRDREKRLEARRNSPAFLSTDLGDEDVGLGPPAPRMQPSKFPEEGGFGDEDETEQPLLPTPGAAPRELENHFLGGGEAGAQGEAGGPLSSTSKAKGPESGPAAALKSSSPASPENYVHPLTGRLLDPSSPLALALSARDRAMQESQQGHKGEAPKADLNKPLYIDTKMRPSVESGFPPVTRQNTRGPLRRQETENKYETDLSKDRRADDKKNMLINIVDTAQQKSAGLLMVHTVDIPVAGPPLEEEEDREDGDTKPDHSPSTVPEGVPKTEGALQISAAPEPAAAPGRTIVAAGSVEEAVILPFRIPPPPLASVDLDEDFLFTEPLPPPLEFANSFDIPDDRAASVPALADLVKQKKSDTPQPPSLNSSQPANSTDSKKPAGISNCLPSSFLPPPESFDAVTDSGIEEVDSRSSSDHHLETTSTISTVSSISTLSSEGGESMDTCTVYADGQAFVVDKPPVPPKPKMKPIVHKSNALYQDTLPEEDTDGFVIPPPAPPPPPGSAQAGVAKVIQPRTSKLWGDVTEVKSPILSGPKANVISELNSILQQMNRGKSVKPGEGLELPVGAKSANLAPRSPEVMSTVSGTRSTTVTFTVRPGTSQPITLQSRPPDYESRTSGPRRAPSPVVSPTELSKEILPTPPSAAAASPSPTLSDVFSLPSQSPAGDLFGLNPAGRSRSPSPSILQQPISNKPFTTKPVHLWTKPDVADWLESLNLGEHKETFMDNEIDGSHLPNLQKEDLIDLGVTRVGHRMNIERALKQLLDR

Variants of: B1
Settings: with cftr_mouse Cftr

Variant	effect of a mutation on the interaction
H109R	disrupting interaction
H109Q	with no effect
H109A	disrupting interaction

From IntAct's records for PubMed 14679199
